Results: patent US20180235193A1 (MINERVA BIOTECHNOLOGIES, published 2018)

Target: T1, recombinant human NME7-AB (human, UniProt Q9Y5B8 92-376)
T1 construct: Truncated recombinant human NME7, about 33 kDa, active as a monomer; also called rhMNE7-AB
T1 sequence: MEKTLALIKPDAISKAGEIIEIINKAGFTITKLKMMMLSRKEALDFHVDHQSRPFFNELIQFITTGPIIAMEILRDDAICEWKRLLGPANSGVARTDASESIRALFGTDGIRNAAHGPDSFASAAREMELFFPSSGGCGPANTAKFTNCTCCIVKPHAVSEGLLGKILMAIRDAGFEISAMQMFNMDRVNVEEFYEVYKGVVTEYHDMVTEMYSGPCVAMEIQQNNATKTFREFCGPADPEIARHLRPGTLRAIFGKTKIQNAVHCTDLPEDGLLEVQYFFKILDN
Assay: sandwich ELISA, PSMGFR peptide coated on the surface, HRP signal

binding result: binds
B1: MUC1* extracellular domain peptide PSMGFR (peptide)
peptide: GTINVHDVETQFNQYKTEAASRYNLTISDVSVSDVPFPFSAQSGA
notes: Synthetic peptide; also called PSMGFR peptide; MUC1* peptide
